Test [1] concerns the target Bothropstoxin II (Bothrops jararacussu) (UniProt P45881). Description: SPR; Biacore T200; […]; 30 μL/min, 37°C; running buffer 0.1 M phosphate, 27 mM KCl, 1.37 M NaCl, pH 7.4; 1:1 Langmuir model. (SPR reads the build-up and loss of mass on a sensor chip optically.)
Test [2] addresses Bothropstoxin I (Bothrops jararacussu) (UniProt Q90249). Described as above.
UniProt Q90249, sequence (Q90249 17-137): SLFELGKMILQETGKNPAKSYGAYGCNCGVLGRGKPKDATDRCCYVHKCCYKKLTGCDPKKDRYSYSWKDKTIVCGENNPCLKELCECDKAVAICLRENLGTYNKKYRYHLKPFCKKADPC

UniProt P45881, sequence (P45881 17-138): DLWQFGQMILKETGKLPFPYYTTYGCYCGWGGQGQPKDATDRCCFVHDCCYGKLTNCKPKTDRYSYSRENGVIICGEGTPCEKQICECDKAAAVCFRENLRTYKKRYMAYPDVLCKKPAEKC

On to VHH KF498607, for which, in test [1], the off-rate (koff) (usually the first-order rate constant of dissociation) turned out to be 0.516 s⁻¹ and the kon – broadly, the rate constant with which the complex forms – was 184000 M⁻¹ s⁻¹. Also, in test [2], the dissociation constant (Kd) (commonly the free concentration of one partner at which half of the binding sites on the other are occupied at equilibrium, for simple one-to-one binding) came out at 629 nM; the koff stood at 0.162 s⁻¹; the kon amounted to 257000 M⁻¹ s⁻¹.

In test [1], VHH KF498608 displayed a dissociation constant Kd of 42.7 nM and a koff of 0.0302 s⁻¹. In test [2], this substance gave a Kd of 668 nM, a koff of 0.119 s⁻¹ and a kon of 179000 M⁻¹ s⁻¹.

For the substance VHH KC329718, in test [1], the Kd amounted to 770 nM, the koff stood at 0.258 s⁻¹ and the on-rate constant (kon) was determined as 335000 M⁻¹ s⁻¹. In test [2], the Kd amounted to 53.9 nM, the koff was 0.0346 s⁻¹ and the kon amounted to 642000 M⁻¹ s⁻¹.

For the origin of these results see article PMC4814101.
